According to paper PMC6422694:

Tested on: NC(=O)c1ccc[n+]([C@@H]2O[C@H](COP(=O)(O)OP(=O)(O)OC[C@H]3O[C@@H](n4cnc5c(N)ncnc54)[C@H](O)[C@@H]3O)[C@@H](O)[C@H]2O)c1
Experiment: purified protein
Conditions: pH 8.1

Substance: (Oryza sativa Japonica Group)
- Km: 193.7 ± 98.2 µM
